We go through one compound from publication PMC2394487, “Improved radiotracing of oxytocin receptor-expressing tumours using the new [^111In]-DOTA-Lys^8-deamino-vasotocin analogue” (British Journal of Cancer, 2003).

Positions of bridges follow the written chain, without caps; N, C: chain ends. Non-standard residues stand in square brackets, D forms with d. Residues, ends and D or L forms follow the SMILES beside them. *: point of attachment. DOTA = O=C(O)CN1CCN(CC(=O)O)CCN(CC(=O)*)CCN(CC(=O)O)CC1; Mpa = O=C(O)CCS

One data set deals with T1, human OTR (Homo sapiens, UniProt P30559).
T1 construct: expressed in transfected cells; host or cells: COS7 (monkey kidney), transient electroporation
T1 sequence (P30559 1-389): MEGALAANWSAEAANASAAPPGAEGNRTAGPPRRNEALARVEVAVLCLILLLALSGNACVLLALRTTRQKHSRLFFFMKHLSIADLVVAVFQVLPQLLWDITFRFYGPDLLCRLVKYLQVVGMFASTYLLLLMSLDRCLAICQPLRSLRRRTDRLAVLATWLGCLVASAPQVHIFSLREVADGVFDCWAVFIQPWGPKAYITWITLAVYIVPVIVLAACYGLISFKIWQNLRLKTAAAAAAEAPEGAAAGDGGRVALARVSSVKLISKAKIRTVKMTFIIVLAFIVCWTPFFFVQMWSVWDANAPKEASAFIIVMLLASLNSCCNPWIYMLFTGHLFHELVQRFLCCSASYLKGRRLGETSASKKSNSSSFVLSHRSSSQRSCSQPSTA
The data set is described as follows: [111In]-DOTA-dLVT saturation binding assay, membranes of transfected COS7 cells. On the procedure:
Figure 3 Binding of LVT-derived peptides to human OT/AVP receptor subtypes. (A) Comparison of OT and DOTA-dLVT affinity for the human OTR. Competition experiments were performed using membrane preparations of COS7 cells transiently transfected with the wild-type OTR. [^3H]-OT was used at a concentration of 1–2 nM, and nonspecific binding was determined in the presence of […] OT. Data are expressed as the percentage of bound [^3H]-OT in the absence of cold competitor. The curves are representative of three independent assays performed in triplicate. (B) [^111In]-DOTA-dLVT saturation binding assay. The affinity of [^111In]-DOTA-dLVT for the human OTR was measured by incubating increasing amounts of labelled peptide to membrane preparations of COS7 cells transiently transfected with the wild-type OTR. The curve is representative of two independent assays performed in triplicate. […] The membrane preparations of OTR-expressing cells were incubated in the presence of a constant amount of ^3[H]OT (1–2 nM), and nonspecific binding was determined in the presence of 100 μM OT. The membrane preparations of cells expressing V1a, V1b and V2 receptors were incubated in the presence of a constant amount of ^3[H]AVP (2–4 nM), and nonspecific binding was determined in the presence of 100 μM AVP. The data are expressed as percentages of bound [^3H]-ligand in the absence of cold competitor. […]

The subject of another data set is OTR+ TS/A tumours. The data set can be described thus: in vivo. Also on record: species or system Balb/c mice. The settings on record: mouse; for tissue to tissue ratio at 5 h: female, Balb/c, iv, 74 kBq, total radioactivity. On the procedure: To determine the amount and specificity of the receptor-mediated uptake of [^111In]-DOTA-dLVT in tumours, we used an experimental model of OTR+ TS/A tumours growing in Balb/c mice. A total of 10 female Balb/c mice weighing 25 g were subcutaneously injected with TS/A mammary carcinoma (0.3 × 10^6 in 0.2 ml of medium). After 20 days, when the growing tumour had reached about 2 cm in diameter, five mice were intravenously administered 50 μg of cold OT 30 min before the radiotracer and the other five were not. Mice were injected in the tail vein with [^111In]-DOTA-dLVT (average activity: 74 kBq) and killed 5 h later. The organs were collected, washed, weighed and their radioactivity was measured in a gamma-ray detector with well-counter geometry ([…], Milan, Italy) together with standards of the injection mixture. Activity was expressed as the percentage of the injected dose (%ID) g^-1 of tissue, and the uptake ratios of tumour, blood, kidney and liver were calculated. [table]

At human OTR, `CC[C@H](C)[C@@H]1NC(=O)[C@H](Cc2ccc(O)cc2)NC(=O)CCSSC[C@@H](C(=O)N2CCC[C@H]2C(=O)N[C@@H](CCCCNC(=O)CN2CCN(CC(=O)O)CCN(CC(=O)O)CCN(CC(=O)O)CC2)C(=O)NCC(N)=O)NC(=O)[C@H](CC(N)=O)NC(=O)[C@H](CCC(N)=O)NC1=O` [[^111In]-DOTA-dLVT, metal not drawn] ([Mpa]YIQNCPK(DOTA)G-NH2; disulfide 1-6) gave a Kd of 4.5 nM. Also, the tissue to tissue ratio at 5 h in the data set with OTR+ TS/A tumours (Tumour/kidney ratio) came to 0.06. In the data set with OTR+ TS/A tumours (Tumour/liver ratio), the tissue to tissue ratio at 5 h turned out to be 1.42. In the data set on OTR+ TS/A tumours, the Tumour/blood ratio turned out to be 7.58 and the “decrease in uptake when TS/A tumours were blocked with 50 μg of cold OT” value is reported as “three-fold decrease”.

Broadly, the Kd is the equilibrium constant for the complex coming apart.
